# B1: bNAb3 (antibody, V domains shown)
# VH: QVQLRESGPGLVKPSETLSLSCTVSNDSRPSDHSWTWVRQSPGKALEWIGDIHYNGATTYNPSLRSRVRIELDQSIPRFSLKMTSMTAADTGMYYCARNAIRIYGVVALGEWFHYGMDVWGQGTAVTVSS
# VL: SSELTQPPSVSVSPGQTARITCSGAPLTSRFTYWYRQKPGQAPVLIISRSSQRSSGWSGRFSASWSGTTVTLTIRGVQADDEADYYCQSSDTSDSYKMFGGGTKLTVLG
# B2: bNAb16 (antibody, V domains shown)
# VH: EVQLVESGGGLVKPGGSLRLTCVASGFTFSDVWLNWVRQAPGKGLEWVGRIKSRTDGGTTDYAASVKGRFTISRDDSKNTLYLQMNSLKTEDTAVYSCTTDGFIMIRGVSEDYYYYYMDVWGKGTTVTVSS
# VL: QSVLTQPPSVSAAPGQKVTISCSGSSSNIGNNYVLWYQQFPGTAPKLLIYGNNKRPSGIPDRFSGSKSGTSATLGITGLQTGDEADYFCATWDSGLSADWVFGGGTKLTVLG
# B3: bNAb1 (antibody, V domains shown)
# VH: QPQLQESGPTLVEASETLSLTCAVSGDSTAACNSFWGWVRQPPGKGLEWVGSLSHCASYWNRGWTYHNPSLKSRLTLALDTPKNLVFLKLNSVTAADTATYYCARFGGEVLRYTDWPKPAWVDLWGRGTLVTVSS
# VL: QSALTQPPSASGSPGQSITISCTGTSNNFVSWYQQHAGKAPKLVIYDVNKRPSGVPDRFSGSKSGNTASLTVSGLQTDDEAVYYCGSLVGNWDVIFGGGTKLTVLG
# B4: bNAb14 (antibody, V domains shown)
# VH: QLQLQESGPGLVKPSETLSLTCTVSGGSMRGTDWGENDFHYGWIRQSSAKGLEWIGSIHWRGRTTHYKTSFRSRATLSIDTSNNRFSLTFSFVTAADTAVYYCARHKYHDIFRVVPVAGWFDPWGQGLLVTVSS
# VL: EIVMTQSPPTLSVSPGETATLSCRASQNVKNNLAWYQLKPGQAPRLLIFDASSRAGGIPDRFSGSGYGTDFTLTVNSVQSEDFGDYFCQQYEEWPRTFGQGTKVDIKR
# B5: bNAb15 (antibody, V domains shown)
# VH: EVHLEESGPGLVRPSETLSLTCTASGGSIRGGEWGDSDYHWGWVRHSPEKGLEWIGSIHWRGTTHYNAPFRGRGRLSIDLSRNQFSLRLTSVTAEDTAVYYCVKHKYHDIVMVVPIAGWFDPWGQGLQVTVSS
# VL: EIMMTQSPAILSVSPGDRATLSCRASQSVKNNLAWYQKRPGQAPRLLIFDTSSRASGIPARFSGGGSGTEFTLTVNSMQSEDFATYYCQQYEEWPRTFGQGTKVEIKR
# B6: bNAb18 (antibody, V domains shown)
# VH: QVQLVQSGAEVRKPGSSVTISCKPVGGTFTNFAIHWVRQAPGQGLEWVGGRVPVVGIYKYGKKFHDRLRLYEDDPMKTVFLELRSLTSDDTGVYYCTRWRGCGMCPYDTSSYYNDASDVWGPGTKVIVSA
# VL: EIVLTQSPVTLSLSSGETGTLSCRASQNISSSWIAWYQQRRGQVPRLLISAASARAAGIPDRFTGRGSGTDFTLTITRLEPEDFGVYSCQYYGGSFFTFGPGTQVDVKR
# B7: bNAb19 (antibody, V domains shown)
# VH: EVQLVESGGGLVKAGGSLILSCGVSNFRISAHTMNWVRRVPGGGLEWVASISTSSTYRDYADAVKGRFTVSRDDLEDFVYLQMHKMRVEDTAIYYCARKGSDRLSDNDPFDAWGPGTVVTVSP
# VL: DVVMTQSPSTLSASVGDTITITCRASQSIETWLAWYQQKPGKAPKLLIYKASTLKTGVPSRFSGSGSGTEFTLTISGLQFDDFATYHCQHYAGYSATFGQGTRVEIKR
# B8: bNAb23 (antibody, V domains shown)
# VH: QVQLLESGPGLVRPSETLTLTCSVFNSRVSGYYYSWIRQPPGRGLEWIASTHFSLRPSRNPSLLSRVTTSIDTERYQVFLNMRSVTAADTAVYFCARGDASGWRADYFPHWGQGTLVVVSS
# VL: QSVLTQPPSASGSPGQSVTISCTGTSSDIGASDYVSWYQQYPGEAPKVIIYDVTKRPSGVPDRFSGSKSGTTASLTVSGLQAEDEADYYCSSDAGRHTLLFGGGTKVTVLG
# B9: bNAb5 (antibody, V domains shown)
# VH: QLQMQESGPGLVKPSETLSLSCTVSGDSIRGGEWGDKDYHWGWVRHSAGKGLEWIGSIHWRGTTHYKESLRRRVSMSIDTSRNWFSLRLASVTAADTAVYFCARHRHHDVFMLVPIAGWFDVWGPGVQVTVSS
# VL: EIVMTQSPDTLSVSPGETVTLSCRASQNINKNLAWYQYKPGQSPRLVIFETYSKIAAFPARFVASGSGTEFTLTINNMQSEDVAVYYCQQYEEWPRTFGQGTKVDIKR
# Columns and labels:
# Test in all cases: cell-based or functional assay
# [1] = target: HIV-1 envelope T278.50 (HIV-1)
# [2] = target: HIV-1 envelope CAP45.2.00.G3 (HIV-1)
# [3] = target: HIV-1 envelope 42368 (HIV-1)
# [4] = target: HIV-1 envelope NL4-3 (HIV-1)
# [5] = target: HIV-1 envelope CC1/85 (HIV-1)
# [6] = target: HIV-1 envelope X2088.C9 (HIV-1)
# [7] = target: HIV-1 envelope ZM106.9 (HIV-1)
# [8] = target: HIV-1 envelope 3326_V4_C3 (HIV-1)
# [9] = target: HIV-1 envelope 3637_V5_C3 (HIV-1)
# [10] = target: HIV-1 envelope Q461_E2 (HIV-1)
# [11] = target: HIV-1 envelope 3468_V1_C12 (HIV-1)
# [12] = target: HIV-1 envelope of laboratory strain NL4-3 (HIV-1)
# [13] = target: HIV-2 envelope HIV-2-ATM88 (HIV-2)
# [14] = target: HIV-2 envelope HIV-2-HCC-01 (HIV-2)
# [15] = target: a different panel of HIV-1 envelopes from bNAb1-resistant strains
# [16] = target: HIV-1 envelope 246F3 (HIV-1)
# [17] = target: HIV-1 envelope 25710 (HIV-1)
# [18] = target: HIV-1 envelope 398F1 (HIV-1)
# [19] = target: HIV-1 envelope CE1176 (HIV-1)
# [20] = target: HIV-1 envelope JR-CSF (HIV-1)
# [21] = target: HIV-1 envelope BJOX2000 (HIV-1)
# [22] = target: HIV-1 envelope X1632_S2_B10 (HIV-1)
# [23] = target: HIV-1 envelope X2278 (HIV-1)
# [24] = target: HIV-1 envelope CE0217 (HIV-1)
# [25] = target: HIV-1 envelope TRO11 (HIV-1)
# [26] = target: HIV-1 envelope CNE8 (HIV-1)
# [27] = target: HIV-1 envelope CNE55 (HIV-1)
# [28] = target: HIV-1 envelope CH119 (HIV-1)
# [29] = target: HIV-1 envelope JRFL (HIV-1)
binder,measurement,setting,value
B1,"IC50 (nM), PSV assay (ACTOne cells)",[1],0.01 nM
same,"IC50 (nM), PSV assay (ACTOne cells)",[2],> 500 nM
same,"IC50 (nM), PSV assay (ACTOne cells)",[3],> 500 nM
same,"IC50 (nM), PSV assay (ACTOne cells)",[4],0.15 nM
same,"IC50 (nM), PSV assay (ACTOne cells)",[5],38.3 nM
same,"IC50 (nM), PSV assay (ACTOne cells)",[6],0.03 nM
same,"IC50 (nM), PSV assay (ACTOne cells)",[7],0.03 nM
B2,"IC50, PSV assay",[8],> 500 nM
same,"IC50, PSV assay",[3],> 500 nM
same,"IC50, PSV assay",[9],> 500 nM
same,"IC50, PSV assay",[6],289 nM
same,"IC50, PSV assay",[10],> 500 nM
same,"IC50, PSV assay",[7],> 500 nM
same,"IC50, PSV assay",[11],> 500 nM
B3,EC50 (replicating virus assay),[12],> 500 nM
same,"IC50, PSV assay",[13],> 500 nM
same,"IC50, PSV assay",[14],> 500 nM
same,"IC50 (nM), PSV assay (ACTOne cells)",[1],0.17 nM
same,"IC50 (nM), PSV assay (ACTOne cells)",[2],> 500 nM
same,"IC50 (nM), PSV assay (ACTOne cells)",[3],> 500 nM
same,"IC50 (nM), PSV assay (ACTOne cells)",[4],131 nM
same,"geometric mean IC50, PSV assay (ACTOne), FIG. 4B",[15],> 10 nM
same,"IC50 (nM), PSV assay (ACTOne cells)",[5],0.03 nM
same,"IC50 (nM), PSV assay (ACTOne cells)",[6],402 nM
same,"IC50 (nM), PSV assay (ACTOne cells)",[7],0.07 nM
B4,"IC50, PSV assay",[8],> 500 nM
same,"IC50, PSV assay",[3],> 500 nM
same,"IC50, PSV assay",[9],> 500 nM
same,"IC50, PSV assay",[6],2.79 nM
same,"IC50, PSV assay",[10],> 500 nM
same,"IC50, PSV assay",[7],1.26 nM
same,"IC50, PSV assay",[11],> 500 nM
B5,"IC50, PSV assay",[8],> 500 nM
same,"IC50, PSV assay",[3],> 500 nM
same,"IC50, PSV assay",[9],5 nM
same,"IC50, PSV assay",[6],2.58 nM
same,"IC50, PSV assay",[10],> 500 nM
same,"IC50, PSV assay",[7],1.34 nM
same,"IC50, PSV assay",[11],> 500 nM
B6,"IC50, PSV assay",[8],> 500 nM
same,"IC50, PSV assay",[3],> 500 nM
same,"IC50, PSV assay",[9],> 500 nM
same,"IC50, PSV assay",[6],0.2 nM
same,"IC50, PSV assay",[10],> 500 nM
same,"IC50, PSV assay",[7],0.11 nM
same,"IC50, PSV assay",[11],> 500 nM
B7,"IC50, PSV assay",[8],> 300 nM
same,"IC50, PSV assay",[3],> 300 nM
same,"IC50, PSV assay",[9],> 300 nM
same,"IC50, PSV assay",[6],> 300 nM
same,"IC50, PSV assay",[10],> 300 nM
same,"IC50, PSV assay",[7],> 300 nM
same,"IC50, PSV assay",[11],> 300 nM
B8,"IC50, PSV assay",[8],15.3 nM
same,"IC50, PSV assay",[3],> 500 nM
same,"IC50, PSV assay",[9],> 500 nM
same,"IC50, PSV assay",[6],> 500 nM
same,"IC50, PSV assay",[10],> 500 nM
same,"IC50, PSV assay",[7],17.4 nM
same,"IC50, PSV assay",[11],> 500 nM
B9,"IC50 (nM), PSV assay",[16],40.9 nM
same,"IC50 (nM), PSV assay",[17],8.1 nM
same,"IC50 (nM), PSV assay",[18],1.83 nM
same,"IC50 (nM), PSV assay",[19],57.1 nM
same,"IC50 (nM), PSV assay",[20],0.64 nM
same,"IC50 (nM), PSV assay",[21],127 nM
same,"IC50 (nM), PSV assay",[22],> 500 nM
same,"IC50 (nM), PSV assay",[1],96.1 nM
same,"IC50 (nM), PSV assay",[23],9.53 nM
same,"IC50 (nM), PSV assay",[2],> 500 nM
same,"IC50 (nM), PSV assay",[3],> 500 nM
same,"IC50 (nM), PSV assay",[4],2.62 nM
same,"IC50 (nM), PSV assay",[24],410 nM
same,"IC50 (nM), PSV assay",[25],0.39 nM
same,"IC50 (nM), PSV assay",[26],51.4 nM
same,"IC50 (nM), PSV assay",[5],> 500 nM
same,"IC50 (nM), PSV assay",[27],3300 nM
same,"IC50 (nM), PSV assay",[6],0.17 nM
same,"IC50 (nM), PSV assay",[7],2.04 nM
same,"IC50 (nM), PSV assay",[28],63.5 nM
same,"IC50 (nM), PSV assay",[29],58.2 nM

# — patent publication US20250250328A1
